We go through five substances from patent publication US20150065376A1, “EXPRESSION CONSTRUCTS ENCODING G PROTEIN COUPLED RECEPTORS AND METHODS OF USE THEREOF” (priority 2013, published 2015).

pKd: −log10 of the molar value. Some results are limits rather than exact numbers.

The target in one data set is Cxcr4b. The following applies: value used for graph of free Cxcr4b versus free Sdf1, FIG. S3B; read-out: dissociation constant; cited from earlier work.
In data set [1] the target is Cxcr7b (zebrafish CXCR7 ortholog) (zebrafish). The data set can be described thus: cell-based or functional assay.
Data set [2] addresses Cxcr4b-Kate2 fusion protein (zebrafish Sdf1-signaling sensor) (zebrafish). Put plainly: cell-based or functional assay.
The target in data set [3] is Cxcr7a (zebrafish CXCR7 ortholog) (zebrafish). The data set can be described thus: cell-based or functional assay.
For a further data set, the target named is T1, human CXCR4 (Homo sapiens, UniProt P61073).
T1 construct: Kate2 (TagRFP2, RFP variant); host or cells: Flp-In T-REx 293 (HEK 293), tetracycline-inducible, cell line number 4
T1 sequence (P61073 whole entry): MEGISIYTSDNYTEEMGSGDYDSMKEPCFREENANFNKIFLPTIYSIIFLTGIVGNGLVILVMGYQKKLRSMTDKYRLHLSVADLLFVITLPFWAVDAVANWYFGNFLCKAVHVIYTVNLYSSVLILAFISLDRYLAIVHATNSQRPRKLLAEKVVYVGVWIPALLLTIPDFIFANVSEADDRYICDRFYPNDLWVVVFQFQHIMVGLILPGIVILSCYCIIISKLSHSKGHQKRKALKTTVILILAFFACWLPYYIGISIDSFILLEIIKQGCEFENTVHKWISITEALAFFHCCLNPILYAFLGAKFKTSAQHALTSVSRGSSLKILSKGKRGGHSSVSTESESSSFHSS
The data set can be described thus: human Sdf1-signaling sensor in Flp-In T-REx 293 cell line (CXCR4-Kate2 internalization). The class given is cell-based. The following applies: Flp-In T-REx 293 cells, tetracycline-induced sensor, within 40 minutes, not in vehicle treated controls. The source says:
In order to test whether the human version of the Sdf1-signaling sensor responds to human SDF1 in a similar fashion to that of the fish version of the Sdf1-signaling sensor, the present inventors generated a Flp-In™ T-REx™ 293 cell line that expresses human CXCR4 fused to the RFP variant Kate2 followed by an IRES and a membrane-tethered GFP from a tetracycline-inducible promoter. Because the flippin technology allows one to generate a single copy transgene in a specific genomic location of HEK 293 cells, expression levels from the human Sdf1-signaling sensor are fairly uniform (FIGS. S4A and C).
Human CXCR4-Kate2-IRES-GFP-CaaX was inserted into the FRT sites in the genome of the Flp-In™ T-REx™ cell line using hygromycin selection (Invitrogen). Five different cell lines were established and cell line number 4 was used to characterize the activity of recombinant human SDF1 on the human Sdf1-signaling sensor. Expression of the human Sdf1-signaling sensor was induced using tetracycline and cells were imaged 24 hours after induction of expression using a Leica SP5 II confocal microscope.

For another data set, the system named is sdf1a. Put plainly: linearity of the Sdf1-signaling sensor, sdf1a morpholino injection. Type of data set: in vivo, zebrafish. The following applies: increasing amounts of morpholino injected, embryos imaged at 36 hpf, FIG. 3C. The source says:
Using ImageJ (NIH), a mask was applied to the GFP channel with a threshold to selectively mark the cell membranes of the cells that comprise the primordium. All values in the GFP and Kate2 channels outside of the mask were discarded and the photon counts from the Kate2 channel were divided by the photon counts from the GFP channel for each voxel to yield a Z-stack in which each value-containing voxel represents the ratio of Kate2 fluorescence to GFP fluorescence on the cell membrane. A custom ImageJ (NIH) macro language script was written in order to automate this analysis. The data was then averaged across the dorsal-ventral axis and placed in 1-micron bins in order to yield 100 data points for still images or 80 data points for time-lapse images that correspond to the first 100 μm or the first 80 μm, respectively, from the front tip of the primordium. […]
Tg(cxcr4b:cxcr4b-kate2-IRES-memGFP) embryos were injected alternately with 0, 0.5, 1.0 and 1.5 nl of 0.025 mM or 0.1 mM sdf1a morpholino solution (Doitsidou et al., 2002). […] Image collection and gradient quantification were performed as described above. The shift of the Sdf1-signaling gradient was determined by fitting the average ratios to a second order polynomial using the least squares regression in ImageJ (NIH) and extracting the y-intercept. […]

Turning to “Sdf1: chemokine Sdf1, free ligand binding reversibly to Cxcr4b”, the pKd at Cxcr4b is 8.40.

For “Sdf1a protein (zebrafish chemokine Sdf1a) (ligand)”, in data set [1], the reduction in the local concentration of signaling competent Sdf1a in the rear of the primordium came out at 86% and the reduction in the steepness of the Sdf1-signaling gradient across the primordium in the absence of cxcr7b activity amounted to 40%. For the same substance, in data set [2], the average FmemRed/FmemGreen ratio of the Sdf1-signaling sensor in the absence of Sdf1a protein came out at 2.6; the average FmemRed/FmemGreen ratio of the Sdf1-signaling sensor upon global Sdf1a over-expression was 0.2; the mean FmemRed/FmemGreen at the leading edge of wild-type primordia, 36 hpf was below 0.6; the mean FmemRed/FmemGreen in the rear of wild-type primordia, 36 hpf came out at 2.3. In addition, in data set [3], the reduction in the local concentration of signaling competent Sdf1a in the rear of the primordium was 86% and the reduction in the steepness of the Sdf1-signaling gradient across the primordium in the absence of cxcr7a activity stood at 31%.

On to “Sdf1a-GFP (Sdf1a fused to green fluorescent protein) (ligand)”, for which, in data set [1], the fraction of total Sdf1a-GFP sequestered in the rear of the primordium was 1% and the reduction of Sdf1a-GFP protein levels on the stripe outside the primordium upon Cxcr7b over-expression turned out to be 29%. Further, the fraction of total Sdf1a-GFP sequestered in the rear of the primordium in data set [3] is 1%.

For “recombinant human SDF1: recombinant human chemokine SDF1, ligand of CXCR4”, the “internalization of CXCR4-Kate2 / activation of the human Sdf1-signaling sensor” value with human CXCR4 was “induces internalization of CXCR4-Kate2”; with human CXCR4 (listed as Recombinant human SDF1), “activates the human version of the Sdf1-signaling sensor”.

With “sdf1a morpholino: translation-blocking morpholino against sdf1a, SEQ ID NO: 69 (Doitsidou et al., 2002) (ATCACTTTGAGATCCATGTTTGCA; all phosphorodiamidate morpholino (PMO))”, the “shift of FmemRed/FmemGreen ratios across the primordium” value with sdf1a was “progressively shifts the FmemRed/FmemGreen ratios across the primordium to higher values”.
